Laboratory results: patent US20080160015A1

Tests used:
[1] = molecular target: human monoclonal anti-C1 domain of Factor VIII inhibitory antibody RHD5; test: competition ELISA: 18B6 at 12.5 µg/ml with RHD5 2 µg/ml, RHD5 binding to coated recFVIII detected
[2] = molecular target: human monoclonal anti-C1 domain of Factor VIII inhibitory antibody RHD5; test: competition ELISA: 18B6 at 0.098 µg/ml with RHD5 2 µg/ml, RHD5 binding to coated recFVIII detected
[3] = molecular target: human monoclonal anti-C1 domain of Factor VIII inhibitory antibody RHD5; test: competition ELISA: 18B6 at 3.12 µg/ml with RHD5 2 µg/ml, RHD5 binding to coated recFVIII detected
[4] = molecular target: human monoclonal anti-C1 domain of Factor VIII inhibitory antibody RHD5; test: competition ELISA: 18B6 at 0.39 µg/ml with RHD5 2 µg/ml, RHD5 binding to coated recFVIII detected
[5] = molecular target: human monoclonal anti-C1 domain of Factor VIII inhibitory antibody RHD5; test: competition ELISA: 18B6 at 0.78 µg/ml with RHD5 2 µg/ml, RHD5 binding to coated recFVIII detected
[6] = molecular target: human monoclonal anti-C1 domain of Factor VIII inhibitory antibody RHD5; test: competition ELISA: 18B6 at 0.195 µg/ml with RHD5 2 µg/ml, RHD5 binding to coated recFVIII detected
[7] = molecular target: human monoclonal anti-C1 domain of Factor VIII inhibitory antibody RHD5; test: competition ELISA: supernatant preincubated with RHD5 (0.6 µg/ml), RHD5 binding to coated recFVIII detected
[8] = molecular target: human monoclonal anti-C1 domain of Factor VIII inhibitory antibody RHD5; test: competition ELISA: 18B6 at 50 µg/ml with RHD5 2 µg/ml, RHD5 binding to coated recFVIII detected
[9] = molecular target: human monoclonal anti-C1 domain of Factor VIII inhibitory antibody RHD5; test: competition ELISA: 18B6 with RHD5 2 µg/ml, RHD5 binding to coated recFVIII detected
[10] = molecular target: human monoclonal anti-C1 domain of Factor VIII inhibitory antibody RHD5; test: cell-based or functional assay
[11] = molecular target: human monoclonal anti-C1 domain of Factor VIII inhibitory antibody RHD5; test: competition ELISA: 18B6 at 1.56 µg/ml with RHD5 2 µg/ml, RHD5 binding to coated recFVIII detected
[12] = molecular target: human monoclonal anti-C1 domain of Factor VIII inhibitory antibody RHD5; test: SPR (BIAcore), RHD5 immobilized on CM5, 18B6 infused
[13] = molecular target: human monoclonal anti-C1 domain of Factor VIII inhibitory antibody RHD5; test: competition ELISA: 18B6 at 25 µg/ml with RHD5 2 µg/ml, RHD5 binding to coated recFVIII detected
[14] = molecular target: human monoclonal anti-C1 domain of Factor VIII inhibitory antibody RHD5; test: competition ELISA: 18B6 at 6.25 µg/ml with RHD5 2 µg/ml, RHD5 binding to coated recFVIII detected

Inhibition of binding (%) [1]: 96.9%
Inhibition of binding (%) [2]: 0%
Inhibition of binding (%) [3]: 94.1%
Inhibition of binding (%) [4]: 9.2%
Inhibition of binding (%) [5]: 50.3%
Inhibition of binding (%) [6]: 0%
Inhibition: Elisa (%) [7]: 93.1%
Inhibition of binding (%) [8]: 96.1%
inhibition of binding at an equimolar ratio (%) [9]: 92%
molar ratio RHD5/18B6 at 50% inhibition (molar ratio RHD5/18B6) [9]: 2.5
Neutralisation (%) of RHD5 (0.4 µg/ml) inhibitory activity, chromogenic FVIII assay, anti-Id at 0.0002 µg/ml [10]: 0%
Neutralisation (%) of RHD5 (0.4 µg/ml) inhibitory activity, chromogenic FVIII assay, anti-Id at 0.0006 µg/ml [10]: 6.7%
Neutralisation (%) of RHD5 (0.4 µg/ml) inhibitory activity, chromogenic FVIII assay, anti-Id at 0.00183 µg/ml [10]: 8.9%
Neutralisation (%) of RHD5 (0.4 µg/ml) inhibitory activity, chromogenic FVIII assay, anti-Id at 0.0055 µg/ml [10]: 6.7%
Neutralisation (%) of RHD5 (0.4 µg/ml) inhibitory activity, chromogenic FVIII assay, anti-Id at 0.0165 µg/ml [10]: 8.8%
Neutralisation (%) of RHD5 (0.4 µg/ml) inhibitory activity, chromogenic FVIII assay, anti-Id at 0.049 µg/ml [10]: 11%
Neutralisation (%) of RHD5 (0.4 µg/ml) inhibitory activity, chromogenic FVIII assay, anti-Id at 0.148 µg/ml [10]: 27.4%
Neutralisation (%) of RHD5 (0.4 µg/ml) inhibitory activity, chromogenic FVIII assay, anti-Id at 0.44 µg/ml [10]: 54.3%
Neutralisation (%) of RHD5 (0.4 µg/ml) inhibitory activity, chromogenic FVIII assay, anti-Id at 1.33 µg/ml [10]: 81.2%
Neutralisation (%) of RHD5 (0.4 µg/ml) inhibitory activity, chromogenic FVIII assay, anti-Id at 4 µg/ml [10]: 89.5%
Neutralization: functional test (chromogenic FVIII assay, RHD5 1 µg/ml with supernatant, FVIII Kogenate 0.5 U/ml) [10]: 100%
neutralisation of RHD5 inhibitory activity at an equimolar RHD5/18B6 ratio [10]: 50%
Inhibition of binding (%) [11]: 90.3%
Kd [12]: 3.4 nM
koff [12]: 1.45e-05 s⁻¹
kon [12]: 4260 M⁻¹ s⁻¹
Inhibition of binding (%) [13]: 97.2%
Inhibition of binding (%) [14]: 96.7%
B1: monoclonal anti-idiotypic antibody 18B6 (antibody, V domains shown)
VH: QVQLQQSGAELAKPGASVKMSCKASGYTFTTYWMHWIKQRPGQDLEWIGYINPTSGYTEYNQNFKDKATLTADKSSSTAYMQLNSLTSEDSAVYFCARSGAYYRYDDAMDSWGQGTSVTVSS
VL: QIVLSQSPAILSASPGEKVTMTCRASSSVSYMNWYQQKPGSSPKPWIYATSNLASGVPARFSGSGSGTSYSLTISRVEAEDAATYYCQQWSSNPPMLTFGAGTKLELK
modifications: mouse IgG1 kappa constant regions
